Assay results taken from patent US20250011433A1 (GLIKNIK, published 2025).
Like-named read-outs stand apart in the source and are kept apart here.

Key:
FcγRI [1] = target: T1, FcγRI (UniProt P12314 16-288); experiment: BLI (Octet)
T1 construct: also called CD64

FcγRIIb [2] = target: T2, FcγRIIb (UniProt P31994 46-217, limits assumed); experiment: BLI (Octet)
T2 sequence (looked up): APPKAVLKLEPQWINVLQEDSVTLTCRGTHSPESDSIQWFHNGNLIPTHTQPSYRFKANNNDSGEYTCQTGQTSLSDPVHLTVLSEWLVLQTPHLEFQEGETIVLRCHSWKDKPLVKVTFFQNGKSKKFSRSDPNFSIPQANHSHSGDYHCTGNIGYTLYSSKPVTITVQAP

C1q [3] = target: T3, C1q (UniProt P02745 23-245; P02746 28-253; P02747 29-245); experiment: ELISA on coated C1q
T3 construct: bought C1q coated on ELISA plates at 1 µg/ml; also called complement C1q; complement factor C1q

FcγRI [4] = target: T1, FcγRI; experiment: BLI (Octet); legend: - indicates no binding
Method: (§1) Binding of complement-preferential stradomers or parent stradomer G045c to FcγRI, FcγRIIb, FcγRIIIa, FcγRIIa, or FcRn was assessed. RU values of dissociation were measured by biolayer interferometry using a ForteBio Octet instrument. His-tagged receptor proteins were bound to the sensor tip in 1× kinetic analysis buffer from ForteBio after which the on rate of the receptor/protein was measured by transferring the sensor tip to a 1× kinetics buffer containing the purified stradomer of choice. Off rate was measured by transferring the sensor tip to a 1× kinetics buffer, and RU value was calculated from the measured maximum binding using the ForteBio software. Biolayer interferometry detects the binding between a ligand immobilized on the biosensor tip surface and an analyte in solution. When binding occurs it produces an increase in optical thickness at the biosensor tip, which results in a wavelength shift (detected as a response unit of “RU”). The maximum binding level (RU max) is the maximum possible amount of sample binding at equilibrium that saturates the amount of ligand on the sensor surface. The RU 300 is the residual sample binding after 300 seconds of dissociation and is useful to characterize the rate of dissociation of the test article from the test ligand.

FcγRIIIa = FcγRIIIa (UniProt P08637 17-208); experiment: BLI (Octet); legend: - indicates no binding
Method: as §1

FcγRIIb [5] = target: T2, FcγRIIb; experiment: BLI (Octet); remark: listed apart in the source
Method: as §1

C1q [6] = target: T3, C1q; experiment: ELISA on coated C1q; remark: listed apart in the source
Method: For C1q binding, 96 well plates were coated with C1q (Sigma Cat #: C1740 1 μg/ml) overnight in PBS. After coating, plates were washed 3 times with standard wash buffer (iX PBS+0.05% Tween 20) and blocked with blocking buffer (1% BSA+1× PBS+0.05% Tween 20) for 2 hours at RT. Following blocking, plates were incubated with compound diluted in blocking buffer 100 μL/well and washed 3 times with standard washing buffer. C1q-bound compound was detected by incubation with 1:5000 biotinylated mouse anti-human IgG1(Cat #555869, BD Biosciences) and Streptavidin-HRP (Cat #: 7100-05 Southern Biotech) (100 μl/well) for 1 hour at room temperature followed by washing 3 times with washing buffer, after which color was developed using the standard TMB method according to manufacturer's protocol for 15 minutes. Absorbance was read at 450 nm.

FcγRI [7] = target: T1, FcγRI; experiment: BLI (Octet); remark: listed apart in the source
Method: as §1

FcγRIIa = target: T4, FcγRIIa (UniProt P12318 36-218, limits assumed); experiment: BLI (Octet); legend: - indicates no binding
T4 sequence (looked up): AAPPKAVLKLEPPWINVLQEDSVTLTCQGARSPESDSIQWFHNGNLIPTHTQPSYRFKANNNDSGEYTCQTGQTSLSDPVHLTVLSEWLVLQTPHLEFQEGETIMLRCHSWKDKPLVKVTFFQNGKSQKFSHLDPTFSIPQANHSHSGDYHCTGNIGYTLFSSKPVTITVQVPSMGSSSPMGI
Method: as §1

FcγRIIb [8] = target: T2, FcγRIIb; experiment: BLI (Octet); legend: - indicates no binding
Method: as §1

C3 complement component = target: T5, C3 complement component (UniProt P01024 23-1663); experiment: ELISA on coated C3
T5 construct: bought protein coated on ELISA plates at 1 µg/ml

mouse FcγRIIb = target: T6, mouse FcγRIIb (mouse, UniProt P08101 30-207, limits assumed); experiment: BLI (Octet), FIG. 19 bottom panels
T6 sequence (looked up): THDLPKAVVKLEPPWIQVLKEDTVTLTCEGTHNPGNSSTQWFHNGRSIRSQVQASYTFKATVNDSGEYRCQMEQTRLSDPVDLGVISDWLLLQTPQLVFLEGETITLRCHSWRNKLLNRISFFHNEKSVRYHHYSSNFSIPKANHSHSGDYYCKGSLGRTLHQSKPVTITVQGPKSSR

mouse FcγRIII = target: T7, mouse FcγRIII (mouse, UniProt P08508 31-215, limits assumed); experiment: BLI (Octet), FIG. 19 bottom panels
T7 sequence (looked up): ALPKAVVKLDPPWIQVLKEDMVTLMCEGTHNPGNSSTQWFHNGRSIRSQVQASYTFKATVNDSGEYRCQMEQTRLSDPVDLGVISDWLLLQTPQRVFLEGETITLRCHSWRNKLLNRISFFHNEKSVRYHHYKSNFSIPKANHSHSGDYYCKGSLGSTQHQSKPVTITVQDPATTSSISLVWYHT

mouse FcγRIV = target: T8, mouse FcγRIV (mouse, UniProt A0A0B4J1G0 21-203); experiment: BLI (Octet), FIG. 19 bottom panels
T8 construct: not shown: any purification tag (e.g. His tag) on the soluble recombinant receptor used in biolayer interferometry; not described in the passages seen
T8 sequence: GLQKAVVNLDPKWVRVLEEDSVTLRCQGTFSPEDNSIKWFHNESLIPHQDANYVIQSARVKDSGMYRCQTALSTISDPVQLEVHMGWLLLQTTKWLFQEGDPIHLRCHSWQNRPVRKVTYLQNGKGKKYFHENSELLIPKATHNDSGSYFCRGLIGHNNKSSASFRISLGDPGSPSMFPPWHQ

T3 sequence (P02745 23-245 limits assumed, chain 1 of 3): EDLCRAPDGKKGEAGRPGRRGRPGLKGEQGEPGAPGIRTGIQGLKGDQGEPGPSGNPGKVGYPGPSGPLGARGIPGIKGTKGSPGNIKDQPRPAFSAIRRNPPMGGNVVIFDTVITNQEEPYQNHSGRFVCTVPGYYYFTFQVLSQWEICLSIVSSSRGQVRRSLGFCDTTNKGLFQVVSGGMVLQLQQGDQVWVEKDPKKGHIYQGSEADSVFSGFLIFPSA
T3 sequence (P02746 28-253 limits assumed, chain 2 of 3): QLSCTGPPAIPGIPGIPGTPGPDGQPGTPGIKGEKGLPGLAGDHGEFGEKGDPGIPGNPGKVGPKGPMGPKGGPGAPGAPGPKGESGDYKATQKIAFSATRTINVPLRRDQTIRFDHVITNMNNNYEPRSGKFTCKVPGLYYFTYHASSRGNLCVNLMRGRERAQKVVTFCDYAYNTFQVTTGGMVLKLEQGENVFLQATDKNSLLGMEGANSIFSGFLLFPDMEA
T3 sequence (P02747 29-245 limits assumed, chain 3 of 3): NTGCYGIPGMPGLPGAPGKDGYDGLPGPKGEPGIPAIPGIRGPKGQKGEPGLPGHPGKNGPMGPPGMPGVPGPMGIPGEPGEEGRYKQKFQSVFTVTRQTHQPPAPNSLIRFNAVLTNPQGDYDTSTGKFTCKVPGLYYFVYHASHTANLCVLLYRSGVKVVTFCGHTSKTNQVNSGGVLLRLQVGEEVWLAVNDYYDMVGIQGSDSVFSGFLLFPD
Chain of FcγRIIIa (P08637 17-208 limits assumed): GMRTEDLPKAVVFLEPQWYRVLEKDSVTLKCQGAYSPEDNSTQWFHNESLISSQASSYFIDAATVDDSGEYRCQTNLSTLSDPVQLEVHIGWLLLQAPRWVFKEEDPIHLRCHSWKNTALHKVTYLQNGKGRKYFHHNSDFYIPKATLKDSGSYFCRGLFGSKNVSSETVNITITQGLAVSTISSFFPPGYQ
T1 sequence (P12314 16-288 limits assumed): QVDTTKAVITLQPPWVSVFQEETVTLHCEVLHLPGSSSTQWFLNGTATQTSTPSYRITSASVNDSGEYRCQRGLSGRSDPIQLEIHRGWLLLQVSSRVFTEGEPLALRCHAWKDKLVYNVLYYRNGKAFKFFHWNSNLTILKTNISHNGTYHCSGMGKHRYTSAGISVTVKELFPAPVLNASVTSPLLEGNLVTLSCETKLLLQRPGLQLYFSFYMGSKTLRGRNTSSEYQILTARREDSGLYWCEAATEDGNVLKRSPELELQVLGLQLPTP

Binder	binding result (FcγRIIIa)	binding result (FcγRIIb [5])	binding result (C1q [6])	binding result (FcγRI [7])	also measured
G999 (Fc fusion, G019 background, G236R/S267E/H268F/S324T) ERKCCVECPPCPEPKSCDKTHTCPPCPAPELLRGPSVFLFPPKPKDTLMISRTPEVTCVVVDVEFEDPEVKFNWYVDGVEVHNAKTKPREEQYNSTYRVVSVLTVLHQDWLNGKEYKCKVTNKALPAPIEKTISKAKGQPREPQVYTLPPSRDELTKNQVSLTCLVKGFYPSDIAVEWESNGQPENNYKTTPPVLDSDGSFFLYSKLTVDKSRWQQGNVFSCSVMHEALHNHYTQKSLSLSPGK	–	–	–	–	binding result (FcγRI [1]): binds; binding result (FcγRIIb [2]): binds; binding result (C1q [3]): no binding
G1022 (Fc fusion, G045c background, E233P/L234V/L235A/S267E/H268F/N297A/S324T, G236 deleted; leader 1-20 cleaved) EPKSCDKTHTCPPCPAPPVAGPSVFLFPPKPKDTLMISRTPEVTCVVVDVEFEDPEVKFNWYVDGVEVHNAKTKPREEQYASTYRVVSVLTVLHQDWLNGKEYKCKVTNKALPAPIEKTISKAKGQPREPQVYTLPPSRDELTKNQVSLTCLVKGFYPSDIAVEWESNGQPENNYKTTPPVLDSDGSFFLYSKLTVDKSRWQQGNVFSCSVMHEALHNHYTQKSLSLSPGKERKCCVECPPCP	no binding	–	–	–	binding result (FcγRI [4]): no binding
G1050 (Fc fusion, G045c background, E233P/L234V/L235A/S267E/H268F/N297A/S324T/L328F, G236 deleted; leader 1-20 cleaved) EPKSCDKTHTCPPCPAPPVAGPSVFLFPPKPKDTLMISRTPEVTCVVVDVEFEDPEVKFNWYVDGVEVHNAKTKPREEQYASTYRVVSVLTVLHQDWLNGKEYKCKVTNKAFPAPIEKTISKAKGQPREPQVYTLPPSRDELTKNQVSLTCLVKGFYPSDIAVEWESNGQPENNYKTTPPVLDSDGSFFLYSKLTVDKSRWQQGNVFSCSVMHEALHNHYTQKSLSLSPGKERKCCVECPPCP	no binding	binds	binds	–	binding result (FcγRI [4]): no binding
G994 (Fc fusion, G045c background, E233P/G236R/S267E/H268F/S324T; leader 1-20 cleaved; also called G994 (DEL); G994 (EEM)) EPKSCDKTHTCPPCPAPPLLRGPSVFLFPPKPKDTLMISRTPEVTCVVVDVEFEDPEVKFNWYVDGVEVHNAKTKPREEQYNSTYRVVSVLTVLHQDWLNGKEYKCKVTNKALPAPIEKTISKAKGQPREPQVYTLPPSRDELTKNQVSLTCLVKGFYPSDIAVEWESNGQPENNYKTTPPVLDSDGSFFLYSKLTVDKSRWQQGNVFSCSVMHEALHNHYTQKSLSLSPGKERKCCVECPPCP	no binding	binds	binds	binds	binding result (FcγRIIa): no binding
G1033 (Fc fusion, G045c background, L234A/L235A/S267E/H268F/N297A/S324T; leader 1-20 cleaved; also called G1033 (DEL); G1033 (EEM)) EPKSCDKTHTCPPCPAPEAAGGPSVFLFPPKPKDTLMISRTPEVTCVVVDVEFEDPEVKFNWYVDGVEVHNAKTKPREEQYASTYRVVSVLTVLHQDWLNGKEYKCKVTNKALPAPIEKTISKAKGQPREPQVYTLPPSRDELTKNQVSLTCLVKGFYPSDIAVEWESNGQPENNYKTTPPVLDSDGSFFLYSKLTVDKSRWQQGNVFSCSVMHEALHNHYTQKSLSLSPGKERKCCVECPPCP	no binding	–	binds	binds	binding result (FcγRIIb [8]): no binding
G1047 (Fc fusion) EPKSCDKTHTCPPCPAPELLGGDSVFLFPPKPKDTLMISRTPEVTCVVVDVEFEDPEVKFNWYVDGVEVHNAKTKPREEQYNSTYRVVSVLTVLHQDWLNGKEYKCKVTNKAFPAPIEKTISKAKGQPREPQVYTLPPSRDELTKNQVSLTCLVKGFYPSDIAVEWESNGQPENNYKTTPPVLDSDGSFFLYSKLTVDKSRWQQGNVFSCSVMHEALHNHYTQKSLSLSPGKERKCCVECPPCP	–	–	–	–	binding result (FcγRI [1]): binds; binding result (FcγRIIb [2]): binds
G998 (Fc fusion, G045c background, S267E/H268F/N297A/S324T; leader 1-20 cleaved; also called G998 (DEL); G998 (EEM)) EPKSCDKTHTCPPCPAPELLGGPSVFLFPPKPKDTLMISRTPEVTCVVVDVEFEDPEVKFNWYVDGVEVHNAKTKPREEQYASTYRVVSVLTVLHQDWLNGKEYKCKVTNKALPAPIEKTISKAKGQPREPQVYTLPPSRDELTKNQVSLTCLVKGFYPSDIAVEWESNGQPENNYKTTPPVLDSDGSFFLYSKLTVDKSRWQQGNVFSCSVMHEALHNHYTQKSLSLSPGKERKCCVECPPCP	no binding	binds	binds	binds	binding result (FcγRIIa): no binding
G996 (Fc fusion, G045c background, G236R/S267E/H268F/S324T; leader 1-20 cleaved) EPKSCDKTHTCPPCPAPELLRGPSVFLFPPKPKDTLMISRTPEVTCVVVDVEFEDPEVKFNWYVDGVEVHNAKTKPREEQYNSTYRVVSVLTVLHQDWLNGKEYKCKVTNKALPAPIEKTISKAKGQPREPQVYTLPPSRDELTKNQVSLTCLVKGFYPSDIAVEWESNGQPENNYKTTPPVLDSDGSFFLYSKLTVDKSRWQQGNVFSCSVMHEALHNHYTQKSLSLSPGKERKCCVECPPCP	no binding	binds	binds	binds	binding result (C3 complement component): no binding (tested: 100 µg/ml top concentration); binding result (mouse FcγRIIb): no binding; binding result (mouse FcγRIII): no binding; binding result (mouse FcγRIV): no binding
